Test results reported in patent publication EP1557432B1.

Target: TBP-hCGβ(20-190)
Test: sandwich immunoassay for the hCG heterodimer (anti-hCG β capture, anti-TSH α detection), COS-7 cotransfection of α and β fusions

Concentration (ng/ml) of heterodimer in hCG heterodimer assay: 38 ng/mL
Substance: TBP-hCGα(20-190)
